What was measured:
[1] = target: chCALHM1 hCALHM2 chimera (chicken | human) (UniProt Q9HA72); test: cryo-EM structure
chicken CALHM1 (chicken) = test: cryo-EM structure

Substance | stoichiometry N [1] | stoichiometry N (chicken CALHM1 (chicken))
chCALHM1 hCALHM2 chimera (from UniProt Q9HA72 205-323) | 11 | –
chicken CALHM1 (natural protein) | – | 8
